Test results taken from the supplement of paper PMC12042874.
± gives the uncertainty stated by the source.

Assay: amyloid nucleation score (Sup35N fusion, yeast selection) (log enrichment); library NNK2; higher = more nucleation; inactive = no reads after selection
Method in brief: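 Using DiMSum, nucleation scores were taken as the log enrichment of output over input reads, centred on the mode score of non-aggregating sequences. The input and output reads came from Illumina sequencing of plasmid inserts, with sequences under 100 input reads excluded. The yeast were psi-negative, expressed Sup35N fused to peptides of 20 random codons, were induced with 100 μM copper sulfate for 24 hours, and were grown 7 days at 30°C on medium lacking adenine and uracil.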

Substance | amyloid nucleation score
GTLGFDLKR | -0.507 ± 0.76
GTLPSGICSRKGMPT | 0.283 ± 0.28
GTNHWTVRLIYLVLHLDRDG | 0.583 ± 0.41
GTNKAYFNASFMD | -0.875 ± 0.44
GTPRFEVNIMFHTVDS | 1.57 ± 0.22
GTPVSLNFVLESRTRYQMGA | inactive
GTSIFHRKDGASTDMACQPF | 0.14 ± 0.63
GTWKVGQSYVVRVRLFFLLW | -0.369 ± 0.36
GVAELNLN | inactive
GVCMSLEVKNKKLSNEHNS | 5.18 ± 0.092
GVCSGFPFVRFRNIYIRRLA | 3.22 ± 0.078
GVDLGIRRAFT | 0.578 ± 0.62
GVEQFFGRSSAVHL | -0.341 ± 0.79
GVFSY | -0.967 ± 0.29
GVGSCTRQLWRISRSTPLKL | 2.65 ± 0.069
GVHISRVVCQN | 0.265 ± 1.1
GVHYEKEGVRTSVFSDLSWE | -0.021 ± 0.3
GVPALGFGLAGLTVACFAEE | -0.097 ± 0.34
GVPDCLLCVNSIYQGSLSFG | 5.24 ± 0.09
GVPESGIFLRAHY | inactive
GVSFSDYLSACCLDAGVSGY | 0.773 ± 0.23
GVTSRYTDSVSCGYPDSMML | 0.594 ± 0.45
GVVEYRNFADSIVYGSRKFK | -0.685 ± 0.76
GVWSITNRFQEIVGNCLCVR | 0.576 ± 0.16

Substance | amyloid nucleation score
GWAIPFADIEHCHVLLRISV | 0.914 ± 0.46
GWLHMYY | -0.268 ± 0.36
GWRCSNPPASIKWCATLYSV | 2.08 ± 0.2
GWRLTRDRVG | 1.31 ± 0.18
GWSYTEVYFMIASCYII | 1.16 ± 0.29
GWVKDDWDFTLMRPRFVGRG | -0.143 ± 0.76
GYDVERDNFDCVVTKDELFW | -0.427 ± 0.21
GYIAYATVWGLQDNGSRSIA | -0.637 ± 0.25
GYIGGVSWNISVVVCSS | 2.71 ± 0.11
GYIYPNRIHNLYVGTMSVTV | 5.43 ± 0.093
GYLGMWVKTCCQWTGERSDM | 4.66 ± 0.057
GYSVH | -0.632 ± 1.1
HAGVMLSFNIVVPNFTYSKE | 8.448 ± 0.051
HAKPDNLLFLTNGEPRTIIR | -2.15 ± 1.1
HAMPVYRAEFTLISTIL | 0.268 ± 0.32
HAVDTHFADRGSLALKYSKC | 1.19 ± 0.59
HCLEMGCGLYNAR | 9.476 ± 0.071
HCNLPDWVHGIYMSKS | 0.127 ± 0.74
HDKVCTSLRVVDQCLRPGH | 0.608 ± 0.38
HDRWNWGDCFVIDHALLLMG | 0.393 ± 0.31
HDTLIMFTYKVVVLLASERF | -0.549 ± 0.63
HEPGLPVRSCNVGRHSLSIL | 0.522 ± 0.42
HESVHTTHFMAFYC | 0.124 ± 0.61
HFDEPFFCCAGMHAH | 6.8 ± 0.056

Substance | amyloid nucleation score
HFENLTHYTIVSTFFSLGVP | inactive
HFIKKGDYNKTTKYSPCNEL | -0.941 ± 0.45
HFILAIFLYCSIWIFEFFSL | -1.81 ± 1
HFKWNYYSYSVWEWVFEQLH | -0.36 ± 0.63
HFNLCTQNMSNGYRDCRHT | 4.68 ± 0.11
HFYHLDTSHSGWDLKSSY | 4.68 ± 0.075
HGGQRMCAGCV | 0.865 ± 0.31
HGGRKG | 1.42 ± 0.31
HGICRWL | 0.208 ± 0.25
HGLLTKLWRPFMHGSV | 0.203 ± 0.31
HGLTYIGIKCTYIKRVTWVR | 0.389 ± 0.57
HHRMSYHY | 1.72 ± 0.28
HIFCRLRLAGNRLRSCLCNF | -1.16 ± 1.1
HIIGLIYQKGTSWTA | 4.85 ± 0.073
HINMIGWEFSVGYGWQ | 4.9 ± 0.061
HIVEDLRVSAFTFSIKFISE | 3.33 ± 0.099
HIVIGSFD | inactive
HIWRHDRVLLGSSNTKYMCG | 0.759 ± 0.8
HIYRKM | 0.151 ± 0.2
HLIAFLSAYFYYVMLARMYF | -1.87 ± 1.1
HLLPWMRVLYTYVCSNIQMF | -0.45 ± 0.36
HLNCISRGPMWLNDRMCQCP | 1.76 ± 0.12
